Reference: the DeepSol protein solubility set

Assay: soluble on expression in E. coli; label from the status in PepcDB or PDB records

For “MAAAREPELPQEAPATEPAPPPACRFFLEGRCRFGARCRQPHPGAPAPPGREAQPEAGAKKPPLRTAADVIQRIRWDPRLDPADFSVGYVDRFLGVREEPFSAFCWDQPLAALGPGVLAVPQHRVRFFRFHGRLVWDRASRTDLVFGSGSAAGRGPTILDAPNTEGAHGAEGAEWTLAGTGQEAQAAPKRGSTRPLCTGHQEPGVEEPGELEAAQERALGTAADLGTLAPRGRLAGVTEEALKPTAATRTTLLGGKEAQALGVPGGSAETTEAEWGPAAWPEDKRARLSVAAPCQPRPTHFVALMVTEPGLQAEVTKAQEYLVHVAPHCANFLVPSQNLHLTLALLRLAGAGEEAAAIGALRRALLAPGLNAPPRLSFRKLVLLGPHVLCAPPSPTLESMAQVLSQRLEAEGLSTLQSPGQLHPHLTVAKVPHGSQVHLPKLEFTLSQEVGCQPLQTLWLCRIGRTGGPFQPLAEIRLE”, the “soluble on expression in E. coli” value was “soluble”.

For “MGSDKIHHHHHHMLYLIGLGLSYKSDITVRGLEAIKKCSRVYLEHYTSILMAASQEELESYYGKEIILADRELVETGSKQILNNADKEDVAFLVVGDPFGATTHTDLVLRAKREAIPVEIIHNASVMNAVGACGLQLYNFGQTVSMVFFTDNWRPDSWYDKIWENRKIGLHTLVLLDIKVKEQSIENMARGRLIYEPPRYMSIAQCCEQLLEIEEKRGTKAYTPDTPAVAISRLGSSSQSFKSGTISELANYDSGEPLHSLVILGRQCHELELEYLLEFADDKEKFGKDVANDQEYFKPAAWVPPTEDDSDE”, the “soluble on expression in E. coli” value was “not soluble”.

For “MAHHHHHHMGLKRLAKAAKITSKHMLLLNRREPYKPVTSDRVMIENRRRLEDFEAKNAEGIVFVPDTALPPWQKSIATNLKQQATQMNFRGFRVRVADKQDEPGFPTHFR”, the “soluble on expression in E. coli” value was “soluble”.

In the case of “GSDGTREFLTFEVPLNDSGSAGLGVSVKGNRSKENHADLGIFVKSIINGGAASKDGRLRVNDQLIAVNGESLLGKANQEAMETLRRSMSTEGNKRGMIQLIVARRISRCNE”, the “soluble on expression in E. coli” value is reported as “soluble”.

With “MSLKKRIFVTGGAEGIGRAIVEAFCKDGHQVAFCDINAVSGQQTARDTGAIFHPVDVSDKEALESCMQQILDEWKDIDIVINNVGISKFSSITETSVEDFDKILSVNLRPVFITSRLLAIHRKAQSDSNPYGRIINICSTRYLMSEPGSEGYAASKGGIYSLTHALALSLSEWNITVNSIAPGWIQTQNYDQLRPEDHSQHPSRRVGKPEDIARMCLFLCRDENDFINGENITIDGGMTKKMIYTEGHHHHHH” the “soluble on expression in E. coli” value was “soluble”.

For “MEHLFGKWLPDLPAAISDGISLPMVRLLHTRSLTAALRALPHTFSVELLKLGELETECGGRLVREVLLKLDRIPVVEARSECRIGSAFWQNILDCGTRPLGERLFQADLEGARSAFEFAVAGEGCGRYFAARRSRFSRHGEEMLLTEYFLPELKRFIG”, the “soluble on expression in E. coli” value was “not soluble”.

In the case of “MANRVTMMMKIFENQTAMLHKALNDQHTIESKYKQMETNYENLILKKNLLEGEIQRLRDPERVKSATKLERTKKPGKSEKKKDKDLERNISPNREFKSFEELHQIQETERNKTQLDNVLPQKSEMFKEERTKTKRGQSQNKSKVKIEDSKDSLPKKSDTQLGEQRKDQISSDQSKRAK”, the “soluble on expression in E. coli” value is reported as “soluble”.

In the case of “MGSDKIHHHHHHMKKIRFAAIGLAHNHIYDMCQQLIDAGAELAGVFESDSDNRAKFTSLFPSVPFAASAEQLITDASIDLIACAVIPCDRAELALRTLDAGKDFFTAKPPLTTLEQLDAVQRRVAETGRKFAVYFNERINVDSALFAGELVQRGEIGRVIQTMGVGPHRERGARPDWFYQKRQYGGILCDIGIHQIEQFLYFTGNTNARVVTSQTANYHHPHHPEFEDFGDAMLLGDNGATGYFRCDWFTPDGLSVWGDGRLTILGTEGYIEIRKYVDLTRGESNVVYLVNGKGEQRFTPAGSVERAFFPDFLRDCRERTENAMSQSHIFKATELSILAQQAANKIA”, the “soluble on expression in E. coli” value is reported as “not soluble”.

In the case of “MKPTLFLLAAGMGSRYGGLKQLDGLGPNGETIMDYSIYDAINAGFGKLVFVIRKDFEQDFREKIISKYEGHIPCELVFQSIDDLPEGFTCPADRTKPWGTNHAVMMGADVISEPFAVINCDDFYGRDSFQVMGKFLSALPENSKNVYSMVGFRVGNTLSESGTVSRGICSTDANNLLTSVVERTKIQRLDGEVKYIDDNGEWTATPDTTPVSMNFWGFTPDYFAYSEEFFKTFLSDPKNMENLKSEFFIPLMVDKLINDGTATVEVLDTTSKWFGVTYPEDRQSVVDKIQALVDAGEYPAKLF”, the “soluble on expression in E. coli” value is reported as “not soluble”.

In the case of “MGSDKIHHHHHHMLTKRQLLVLKEIIRLFTESGQPVGSKTLMQELPVHVSSATIRNDMAALEDAGLITKTHSSSGRVPSTQGYRYYLDHLVEPVRVSRHDLATIKQELGQRYSKMDEIVAQSAQILSNLTSYTAISLGPEVNNIKLTGFRLVPLGNHQVMAILVTNNGNVENQVFTVPPSISFDELEKAIRIVNDQLVGLPLVQVAQRLRTDVPSMLMQYLTSPDGFLDIFGNVLKSAASERFYVGGRLNLMDYLGDSDIHELKKIMSLIDADHGDLTELLGGPIRQTPVQVRLGPELKPIDLANLSLITASYDVGGHGTGMIALLGPTQMPYSKMIGLLDVFREELAKRLTDYYANFDQ”, the “soluble on expression in E. coli” value is reported as “not soluble”.

With “MTLNKTDRIVITLGKQIVHGKYVPGSPLPAEAELCEEFATSRNIIREVFRSLMAKRLIEMKRYRGAFVAPRNQWNYLDTDVLQWVLENDYDPRLISAMSEVRNLVEPAIARWAAERATSSDLAQIESALNEMIANNQDREAFNEADIRYHEAVLQSVHNPVLQQLSIAISSLQRAVFERTWMGDEANMPQTLQEHKALFDAIRHQDGDAAEQAALTMIASSTRRLKEIT” the “soluble on expression in E. coli” value was “not soluble”.

With “MVDRFGDVLREWRQLRRMSQMDLGLSAGVSPRHISFLESGRALPSRGMVLRLCDELEVPGGARNRWLTSAGLAPAYHSRNGDAPEMAPLTQAVDWMLSRHAPYPAMAVDRHWRLKTMNRPARAMFAATGLGAGDGLIDALLDNPALAAALENRDEVERLSLTRLRTELAHFGRDPVLEQAVARLAERVARQPGAADAPMPAVIPARYRLGEAVLSFFTTITQFGATGDIAMSELRIEMFFPADDATRQMVEALWGNATPGN” the “soluble on expression in E. coli” value was “not soluble”.

With “MERIAFVYMGGDEFKWLFFEVYDRVRRFMKDVNLGIIPIYAGKIKLPPGMLVRVNAGNGYIKMYPFEAVVEALYGKLVEMRDDVKDDTLTKIFGITTFPIGSRKQYFDIYKKYLGIQVSIGNYNVLALSIKPFYTENRELFVERVFKGVLHEIGHLYGLSHCKNDCVMNPPNDLKDWDRRAPSYCNSCLRELKRKVKPMPLLLHRAYECFHC” the “soluble on expression in E. coli” value was “not soluble”.

In the case of “MAITEFDTSLPSIRQLQNLIKQAAPVEIKLVTGDAITGRVLWQDPTCVCIADENSRQTTIWKQAIAYLQPKG”, the “soluble on expression in E. coli” value is reported as “soluble”.

With “MVTIVWKESKGTAKSRYKARRAELIAERRSNEALARKIALKLSGCVRADKAASLGSLRCKKADECSGSICLPNVAIYAAGYRKSKQLTAR” the “soluble on expression in E. coli” value was “not soluble”.

In the case of “MEAEVDKLELMFQKAESDLDYIQYRLEYEIKTNHPDSASEKNPVTLLKELSVIKSRYQTLYARFKPVAVEQKESKSRICATVKKTMNMIQKLQKQTDLELSPLTKEEKTAAEQFKFHMPDL”, the “soluble on expression in E. coli” value is reported as “not soluble”.

For “MKIQELKLFNGLTEDELQRSLVCSQSNIVEYEKDDYIFSQGERPRWIYMILSGEVLLEQINMAGRQTYAEYLGERQQFGVVDLFLKRKQYSYSARARSHVKLLKISSHFFYGTCENNCMHHSKILFNMMGVFAEEAEKKSKKIQLLTCGSLRQRIALYLLQNSGENKKVELMMNREELAASLNAARPSLSRELSQMQDEGIIKMEGRKSIKILDYSRLQEDLADVSD”, the “soluble on expression in E. coli” value was “not soluble”.

For “MVSTTQSRSLKAMGEEIWKNKTEKINTELFTLTYGSIVAQLCQDYERDFNKVNDHLYSMGYNIGCRLIEDFLARTALPRCENLVKTSEVLSKCAFKIFLNITPNITNWSHNKDTFSLILDENPLADFVELPMDAMKSLWYSNILCGVLKGSLEMVQLDCDVWFVSDILRGDSQTEIKVKLNRILKDEIPIGED”, the “soluble on expression in E. coli” value was “soluble”.

For “MKVSKFGGSSVSNATQIKKVLNIVNSDPERKIVIVSAPGKRHDNDIKTTDLLIRLYEKVINHLDYHDKKREIIQRYDDIVKELQMDESILRTIDVTLEHYINQLKNEPKRLLDALLSCGEDFNAQLIALYNNSQGIPTKYISPKEAGIFVTDVPQEAQILDSAYSEIKKLRDYDEKLIIPGFFGVSHEGYIVTFPRGGSDITGAIISSGVRATIYENFTDVSGIYKANPNIIKDPELIEEITYREMRELSYAGFSVFHDEALQPLYKDRIPVVIKNTNRPQDKGTFIVHDREINAKNVISGISCDKDFTVINIKKYLMNRQVGFTRKILGVLEDNNISFDHMPSGIDTISIVMRSKQIQNKETKVLNEIRQKCDVDELSIEHDLAILMIVGEGMNKVIGTANKITHALAESKINLKMINQGASEISMMFGIHVDDAEKAVLSTYEFCYHGVALKNLCDKNMAGDPLEHHHHHH”, the “soluble on expression in E. coli” value was “not soluble”.

With “EVASYCDRVVAAVSSWMSTVKSTTEVSWNKLSFCDVLLKIITFGIYSPHETLAEKYSEKKLMDSFSPSLSQDKMDGEFAHANIDGISIRLCLNKGICSVFYLDGDKIQSTQLSSKEYNNLLSSLPPKQFNLGKVHTITAPVSGNFKTHKPAPEVIETAINCCTSIIPNDDYFPVKDTDFNSVWHDIYRDIRASDSNSTKIYFNNIEIPLKLIADLINELGINEFIDSKKELQMLSYNQLNKIINSNFPQQDLCFQTEKLLFTSLFQDPAFISALTSAFWQSLHITSSSVEHIYAQIMSENIENRLNFMPEQRVINNCGHIIKINAVVPKNDTAISASGGRAYEVSSSILPSHITCNGVGINKIETSYLVHAGTLPSSEGLRNAIPPESRQVSFAIISPDV” the “soluble on expression in E. coli” value was “soluble”.

With “MKLSEYGLQLQEKQKLRHMYGVNERQFRKTFEEAGKMPGKHGENFMILLESRLDNLVYRLGLARTRRQARQLVTHGHILVDGSRVNIPSYRVKPGQTIAVREKSRNLQVIKEALEANNYIPDYLSFDPEKMEGTYTRLPERSELPAEINEALIVEFYSR” the “soluble on expression in E. coli” value was “soluble”.

In the case of “MNALPSSAEFSRAVGGDAVSREAVIRIEHLSKTFSDAAGPVLDDVSLTIRRGEIHGIIGRSGAGKSTLVRCINLLERPSAGRVIVSGREITSLRGRALRNARRDIGMIFQHFNVLSSHTVAGNVALPFKVAGLPRAEIARRIPPLLELVGLAHKADAYPSELSGGQKQRVGIARALALDPSVLLCDEATSALDPETTDQILALLRDINRKLGLTIVLITHEMHVVRDIATRVAVLDHGRVVEEGATFDVLAFPKSAVARSFLSGLVAHELPPPVAAQLLPAAVPGSDPVLRIVFTGTAAHDPIVADLVSVFGIQPNILHGRIDYVGDRPLGVLTLVAGGAGEKLPAVLSHLSSLGLVVEVIGHAVRSAVARRHSAARLEHHHHHH”, the “soluble on expression in E. coli” value is reported as “not soluble”.

With “MKKYILTLILALASLGLYAQTNRNKTIINAALHGWEYEIKAGVNLGGTAPLPFPEEIRSIDGYNPTLSITIEGNMTKWLDTKKKWGIITGLRLENKGMRTKATVKNYNMEIIGYDGNRLKGNWTGGVRTKVQNSYITIPVLAAYKLSPRTTLKLGPYFSYLMDGDFSGHVYEGYLRETNPTGDKINFTNGAIATYDFSGDLRKFQWGVQAGVDWKAFKHLKVHADLNWGLNDIFNKDFKTVTFDMYAIYLNVGFGYAF” the “soluble on expression in E. coli” value was “not soluble”.

In the case of “MGSDKIHHHHHHMHEVVQDYYGKQLQSTEDLKTSACCDVSNMPSWLKPLLANIHDEVLSRYYGCGLVCPALLEGCRILDLGCGSGRDVYALAQLVGSTGHVVGVDMTDEQLAIAKQHQDYHVDKFGYDNVTFLKGYIEKLDELNLDPNSFDIIVSNCVINLSPDKAAVMASVQRLLKPGGEFYFSDVYADRRIPQQLINDPVLYGECLSGALYWKDFERLARHADFLDPRLVEDRPLEITDPLLAAKIGDIQFFSATYRLFKIATLEDACEDHGQAVIYRGTIDQLPHHFNLDKHHAIETGRVFPVCGNTFRMLKESRFAKHFDFIGDDSRHYGIFAGCGDILPFGNQANIVSDSNVGQSVNSGSCC”, the “soluble on expression in E. coli” value is reported as “not soluble”.
